Test results: US20250074980A1 (BRIGHAM AND WOMEN S HOSPITAL, published 2025)
Where a chain is given by its changes, count along the chain named. In names and notes the source's numbering stands.

B1: VH1/CP08E05 (antibody, IgG4, V domains shown)
VH: EVQLLESGGGLVQPGGSLRLSCAASGFIFSSHGMSWVRQAPGKGLEWVATISSGGTYTYYPDSVKGRFTISRDNSKNTLYLQMNSLKAEDTAMYYCARHDFDYDAAWFAYWGQGTLVTVSS
VL: EIVLTQSPATLSLSPGERATLSCRANSAVSYMYWYQQKPGQAPRPWIYLTSNRATGVPARFSGSGSGTDYTLTISSLEPEDFAVYYCQQWTTNPPTFGQGTKLEIK
notes: IgG4 (S241P), kappa; also called Parent VH/CP08E05
B2: VH1/CP08F05 (antibody, IgG4, V domains shown)
VH: B1 VH
VL: B1 VL with T92S
notes: IgG4 (S241P), kappa; also called Parent VH/CP08F05
B3: VH1/CP08G09 (antibody, IgG4, V domains shown)
VH: B1 VH
VL: B1 VL with T92A, N93F
notes: IgG4 (S241P), kappa; also called Parent VH/CP08G09
B4: 8H3_9C2 (CDR1)/CP08E05 (antibody, IgG4, V domains shown)
VH: B1 VH with G26E, I28T, S31D, G33A, D104F, A105P, A106Y, Y110H
VL: B1 VL
notes: IgG4 (S241P), kappa
B5: 8H3_9C2 (CDR1)/CP08F05 (antibody, IgG4, V domains shown)
VH: B1 VH with G26E, I28T, S31D, G33A, D104F, A105P, A106Y, Y110H
VL: B1 VL with T92S
notes: IgG4 (S241P), kappa
B6: 8H3_9C2 (CDR1)/Vκ8 S29A (antibody, IgG4, V domains shown)
VH: B1 VH with G26E, I28T, S31D, G33A, D104F, A105P, A106Y, Y110H
VL: B1 VL with T91S, T92S
notes: IgG4 (S241P), kappa
B7: 8H3_9C2/CP08E05 (antibody, IgG4, V domains shown)
VH: B1 VH with G26E, I28T, S31D, G33A, D100G, D104F, A105P, A106Y, Y110H
VL: B1 VL
notes: IgG4 (S241P), kappa
B8: 8H3_9C2/Vκ8 S29A (antibody, IgG4, V domains shown)
VH: B1 VH with G26E, I28T, S31D, G33A, D100G, D104F, A105P, A106Y, Y110H
VL: B1 VL with T91S, T92S
notes: IgG4 (S241P), kappa
B9: 8H3_9E5/CP08E05 (antibody, IgG4, V domains shown)
VH: B1 VH with D100G, D104F, A105P, A106Y, Y110H
VL: B1 VL
notes: IgG4 (S241P), kappa
B10: 8H3_9E5/CP08F05 (antibody, IgG4, V domains shown)
VH: B1 VH with D100G, D104F, A105P, A106Y, Y110H
VL: B1 VL with T92S
notes: IgG4 (S241P), kappa
B11: 8H3_9E5/Vκ8 S29A (antibody, IgG4, V domains shown)
VH: B1 VH with D100G, D104F, A105P, A106Y, Y110H
VL: B1 VL with T91S, T92S
notes: IgG4 (S241P), kappa
B12: 9B3_9E5/CP08F05 (antibody, IgG4, V domains shown)
VH: B1 VH with I28T, S30N, S31A, G33A, M34I, D100G
VL: B1 VL with T92S
notes: IgG4 (S241P), kappa
B13: 9B3_9E5/Vκ8 S29A (antibody, IgG4, V domains shown)
VH: B1 VH with I28T, S30N, S31A, G33A, M34I, D100G
VL: B1 VL with T91S, T92S
notes: IgG4 (S241P), kappa
B14: 9B3_9E5_8H3/CP08E05 (antibody, IgG4, V domains shown)
VH: B1 VH with I28T, S30N, S31A, G33A, M34I, D100G, D104F, A105P, A106Y, Y110H
VL: B1 VL
notes: IgG4 (S241P), kappa
B15: 9B3_9E5_8H3/CP08F05 (antibody, IgG4, V domains shown)
VH: B1 VH with I28T, S30N, S31A, G33A, M34I, D100G, D104F, A105P, A106Y, Y110H
VL: B1 VL with T92S
notes: IgG4 (S241P), kappa
B16: 9B3_9E5_8H3/Vκ8 S29A (antibody, IgG4, V domains shown)
VH: B1 VH with I28T, S30N, S31A, G33A, M34I, D100G, D104F, A105P, A106Y, Y110H
VL: B1 VL with T91S, T92S
notes: IgG4 (S241P), kappa
B17: VH1/Vκ0 (antibody, IgG4, V domains shown)
VH: B1 VH
VL: QIVLTQSPALMSASPGVKVTMTCSANSSVSYMYWYRQKPRSSPKPWIYLTSNLASGVPARFSGSGSGTSYSLTISSMEAEDAATYYCQQWSSNPPTFGSGTKLEIK
notes: IgG4 (S241P), kappa; also called VH1/Vκ0 (control)
B18: VH0/Vκ1 (antibody, IgG4, V domains shown)
VH: B1 VH with L5V, G10D, Q13K, R19K, S21A, A40T, G42D, G44R, S75D, A88S
VL: QIVLTQSPALLSLSPGERATMSCSANSSVSYMYWYRQKPGQAPKPWIYLTSNLASGVPARFSGSGSGTDYTLTISSLEAEDFATYYCQQWSSNPPTFGQGTKLEIK
notes: IgG4 (S241P), kappa; also called VH0/Vκ1 (control)

What follows are binders tested against T1, His-tagged CEACAM1 (human, UniProt P13688 35-428) (assay: SPR single-cycle, supernatant IgG captured).
T1 construct: 45 kDa SPR analyte; also called CEACAM1-HIS; CEACAM1 analyte
T1 sequence: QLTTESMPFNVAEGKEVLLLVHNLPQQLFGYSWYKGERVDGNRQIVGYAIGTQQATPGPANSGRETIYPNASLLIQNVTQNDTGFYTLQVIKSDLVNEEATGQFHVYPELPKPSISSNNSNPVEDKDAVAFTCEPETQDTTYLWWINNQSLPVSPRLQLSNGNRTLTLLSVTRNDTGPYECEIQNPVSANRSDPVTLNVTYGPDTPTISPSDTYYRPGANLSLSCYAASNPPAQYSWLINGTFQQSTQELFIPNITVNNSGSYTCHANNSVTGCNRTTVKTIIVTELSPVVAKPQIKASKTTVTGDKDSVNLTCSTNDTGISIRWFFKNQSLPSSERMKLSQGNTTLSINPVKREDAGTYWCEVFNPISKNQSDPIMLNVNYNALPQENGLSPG
Experimental: (§1) In order to assess the binding of the humanized, affinity matured reformatted lead IgGs, single-cycle kinetics analysis was performed on crude supernatants using a Biacore T200 running Biacore T200 Control Software V2.0.1 and Biacore T200 Evaluation Software V3.0. Antibodies were diluted in HBS-P+ to a final concentration of 0.5 μg/ml. At the start of each cycle, antibodies were loaded onto Fc2, Fc3 and Fc4 of the Protein A chip. IgGs were captured at a flow rate of 10 μl/min to give an immobilisation level (RL) of ˜100 RU (a level calculated to obtain a Rₘₐₓ of ˜50-150 RU once the analyte is bound). The surface was then allowed to stabilize. Single-cycle kinetics data was obtained with CEACAM1 as the analyte at a flow rate of 80 μl/min to minimize any potential mass transfer effects. Multiple repeats with the parent (VH1/Vκ8 S29A) antibody were performed to check the stability of the surface and analyte over the kinetic cycles. The signal from the reference channel Fc1 (no antibody) was subtracted from that of Fc2, Fc3 and Fc4 to correct for differences in non-specific binding to the reference surface. A three point, two-fold dilution range from 70 nM to 280 nM CEACAM1 without regeneration between each concentration was used. The signal from each antibody blank run (no CEACAM1) was subtracted to correct for differences in surface stability. The association phase for the three injections of increasing concentrations of CEACAM1 was monitored for 80 seconds each time and a single dissociation phase was measured for 150 seconds following the last injection of CEACAM1. Regeneration of the Protein A surface was conducted using two injections of 10 mM glycine-HCL pH 1.5 followed by a stabilization period of 250 seconds.

Binder | Kd [nM] | koff [s⁻¹] | kon [M⁻¹ s⁻¹] | relative KD to parent
B1 | 140 | 0.034 | 240000 | 4.4
B2 | 280 | 0.11 | 400000 | 2.2
B3 | 110 | 0.049 | 470000 | 5.9

Target: T1, His-tagged CEACAM1
Experiment: SPR single-cycle, supernatant IgG captured
Remark: another data set of the same source
Procedure, shortened: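 His-tagged CEACAM1 served as analyte over Protein A-captured IgG in single-cycle surface plasmon resonance on a Biacore T200, performed at 25° C in HBS-P+ (pH 7.4). The IgG was taken from supernatants of transiently PEI-transfected HEK EBNA cells grown in 6-well plates and harvested 5-7 days later. Relative KD, alongside fitted Kon, koff and Kd, was referenced to the parent antibody run in the same experiment.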

Binder | Kd [nM] | koff [s⁻¹] | kon [M⁻¹ s⁻¹] | relative KD to parent
B1 | 230 | 0.034 | 150000 | 2.4
B2 | 280 | 0.029 | 100000 | 2
B3 | 480 | 0.057 | 120000 | 1.2

Target: T1, His-tagged CEACAM1
Experiment: SPR single-cycle, supernatant IgG captured
Remark: another data set of the same source
Experimental: as §1

Binder | Kd [nM] | koff [s⁻¹] | kon [M⁻¹ s⁻¹] | relative KD to parent
B4 | 250 | 0.019 | 73000 | 2.2
B5 | 240 | 0.017 | 72000 | 2.3
B6 | 210 | 0.018 | 88000 | 2.7
B7 | 110 | 0.0071 | 67000 | 5.3
B8 | 110 | 0.0071 | 65000 | 5.1
B9 | 320 | 0.025 | 79000 | 1.8
B10 | 280 | 0.028 | 77000 | 2
B11 | 300 | 0.024 | 81000 | 1.9
B12 | 95 | 0.012 | 130000 | 5.9
B13 | 150 | 0.021 | 140000 | 3.8
B14 | 270 | 0.022 | 82000 | 1.9
B15 | 210 | 0.018 | 86000 | 2.4
B16 | 210 | 0.02 | 95000 | 2.4

The binders below were run against T1, His-tagged CEACAM1 (assay: SPR single-cycle, IgG captured).
Experimental: As an alternative approach to assess the binding of the 36 antibody combinations and the three control antibodies to CEACAM1, a kinetic analysis was performed on a Biacore T200 (serial no. 1909913) running Biacore T200 Evaluation Software V2.0.1 (Uppsala, Sweden). All experiments were run at 25° C. with HBS-P+ running buffer (pH 7.4) (GE Healthcare, cat. no. BR100671). All kinetic experiments were performed using His-tagged CEACAM1 as the analyte. For all experiments, antibodies were immobilized onto a Series S Protein A sensor chip surface. For kinetic experiments, the amount of immobilized/captured ligand was limited to avoid mass transfer effects at the surface of the chip with the surface ideally having an analyte binding level (Rₘₐₓ) of 50-150 RUs. Using a MW of 45 kDa for the CEACAM1 analyte, 150 kDa for the antibody ligand (estimated value for IgG), 50 RU for Rmax and the stoichiometry (Sm) as 2 due to the ability of each antibody to bind 2 target molecules, a target response level of ˜75 RUs was set for capture of all the sample antibodies.
Single cycle analysis of the 36 antibody combinations and the three control antibodies was performed on purified antibodies (Vκ1 to Vκ6 variants) or on the supernatants of the transiently transfected HEK EBNA cells (Vκ7 to Vκ12 variants). In some instances, where supernatant was not available, purified chimeric antibody VH0/Vκ0 was spiked into HEK EBNA culture medium to use as a positive control. Antibodies were diluted in HBS-P+ to a concentration of 1 μg/ml (as determined by an IgG quantitation ELISA). At the start of each cycle, antibodies were loaded onto Fc2, Fc3 and Fc4 of a protein A chip and IgG captured at a flow rate of 8 μl/min to give an RU of ˜75. The surface was then allowed to stabilize. Single cycle kinetic data was obtained at a flow rate of 50 μl/min to minimize any potential mass transfer effects. Multiple repeats of the chimeric antibody VH0/Vκ0 were performed to check the stability of the surface and analyte over the kinetic cycles. The signal from the reference channel Fc1 (no antibody) was subtracted from that of Fc2, Fc3 and Fc4 to correct for differences in non-specific binding to a reference surface. A 5 point 2-fold dilution range from 3.125 to 50 nM CEACAM1 without regeneration between each concentration was used.

Binder | Kd [nM] | relative KD to VH0/Vκ0
B17 | 64 | 1.5
B18 | 49 | 1.2
